The target in assay [1] is XC-chemokine receptor 1 (XCR1) on mouse dermal dendritic cells (mouse) (UniProt Q9R0M1). In words: cell-based or functional assay.
The target is the same in assay [2]. In words: flow cytometry of ear skin cells 24 h after laser-assisted delivery of the vaccibody in vivo; staining depended on XCR1 expression (Xcr1-/- mice). A general note: Flow cytometry measures light scatter and fluorescence of single cells or particles in a stream.

Sequence of UniProt Q9R0M1 (Q9R0M1 whole entry): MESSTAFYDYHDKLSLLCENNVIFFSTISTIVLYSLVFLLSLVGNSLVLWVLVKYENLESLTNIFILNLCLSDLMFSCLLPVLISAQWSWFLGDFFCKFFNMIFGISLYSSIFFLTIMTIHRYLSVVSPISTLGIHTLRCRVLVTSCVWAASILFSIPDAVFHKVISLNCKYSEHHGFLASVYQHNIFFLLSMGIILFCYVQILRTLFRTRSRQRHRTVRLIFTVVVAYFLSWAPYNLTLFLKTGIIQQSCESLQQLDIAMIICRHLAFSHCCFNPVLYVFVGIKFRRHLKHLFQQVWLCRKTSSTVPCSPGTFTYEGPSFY

Consider “XCL1-OVA vaccibodies (from UniProt P47993 22-114; P01860 99-377; P01012 2-386)”, for which, in assay [1], the OT-I CD8+ T cell proliferation in ear-draining lymph nodes (CTV dilution), against free OVA on a per molecule basis is 15 times and the OT-II CD4+ T cell proliferation in ear-draining lymph nodes (CTV dilution), against free OVA on a per molecule basis worked out at 3 times.

Substance “XCL1-mCherry vaccibodies (from UniProt P47993 22-114; P01860 99-377)” came in with a percent of XCR1+ dermal DCs stained in assay [2] of 15%.

For the origin of these results see US20180140690A1.
